Target: p53, P04637
Sequence (P04637 whole entry, looked up): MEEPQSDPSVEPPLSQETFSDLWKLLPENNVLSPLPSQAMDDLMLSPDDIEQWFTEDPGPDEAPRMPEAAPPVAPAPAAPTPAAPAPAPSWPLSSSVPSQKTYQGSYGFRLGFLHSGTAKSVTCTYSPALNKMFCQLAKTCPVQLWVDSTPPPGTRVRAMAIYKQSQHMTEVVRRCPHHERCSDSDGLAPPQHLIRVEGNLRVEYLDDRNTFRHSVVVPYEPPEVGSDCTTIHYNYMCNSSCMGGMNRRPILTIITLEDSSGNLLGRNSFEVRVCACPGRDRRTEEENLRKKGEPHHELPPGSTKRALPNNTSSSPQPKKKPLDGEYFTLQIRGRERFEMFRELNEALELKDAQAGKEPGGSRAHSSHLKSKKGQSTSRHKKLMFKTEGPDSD

B1: recombinant PP5 (protein phosphatase 5) (protein)
chain: MAMAEGERTECAEPPRDEPPADGALKRAEELKTQANDYFKAKDYENAIKFYSQAIELNPSNAIYYGNRSLAYLRTECYGYALGDATRAIELDKKYIKGYYRRAASNMALGKFRAALRDYETVVKVKPHDKDAKMKYQECNKIVKQKAFERAIAGDEHKRSVVDSLDIESMTIEDEYSGPKLEDGKVTISFMKELMQWYKDQKKLHRKCAYQILVQVKEVLSKLSTLVETTLKETEKITVCGDTHGQFYDLLNIFELNGLPSETNPYIFNGDFVDRGSFSVEVILTLFGFKLLYPDHFHLLRGNHETDNMNQIYGFEGEVKAKYTAQMYELFSEVFEWLPLAQCINGKVLIMHGGLFSEDGVTLDDIRKIERNRQPPDSGPMCDLLWSDPQPQNGRSISKRGVSCQFGPDVTKAFLEENNLDYIIRSHEVKAEGYEVAHGGRCVTVFSAPNYCDQMGNKASYIHLQGSDLRPQFHQFTAVPHPNVKPMAYANTLLQLGMM
dephosphorylation of p53 in vitro: recombinant PP5 can dephosphorylate p53 in vitro

Source: patent US7332335
